Reference: patent US20180118786A1 (ECOLE POLYTECHNIQUE FEDERALE DE LAUSANNE EPFL, published 2018)
Starred links: 1 amine or outer side, 2 acyl side, 3 side chain; linkers in the order of their positions; H or OH if unused. Positions of bridges follow the written chain, without caps; N, C: chain ends. Non-standard residues stand in square brackets, D forms with d. No end group written: not given here. TATA = O=C(CC[*:1])N1CN(C(=O)CC[*:2])CN(C(=O)CC[*:3])C1; Phe(4-NO2) = N[C@@H](Cc1ccc([N+](=O)[O-])cc1)C(=O)O; Phe(3-F) = N[C@@H](Cc1cccc(F)c1)C(=O)O; Phe(3-Me) = Cc1cccc(C[C@H](N)C(=O)O)c1; Phe(4-F) = N[C@@H](Cc1ccc(F)cc1)C(=O)O; 1Nal = N[C@@H](Cc1cccc2ccccc12)C(=O)O; Phe(2-F) = N[C@@H](Cc1ccccc1F)C(=O)O; β3hR = N=C(N)NCCC[C@H](N)CC(=O)O; 3Pal = N[C@@H](Cc1cccnc1)C(=O)O

B1: JS33 (rsCF^4…^bCR) (peptide)
peptide: H-[dR][dS]C[Phe(4-F)]RLPCHQL[β3hR]CR-NH2
modifications: linker 3-8-13 via TATA
SMILES: CC(C)C[C@@H]1NC(=O)[C@H](CCC(N)=O)NC(=O)[C@H](Cc2c[nH]cn2)NC(=O)[C@@H]2CSCCC(=O)N3CN(CN(C3)C(=O)CCSC[C@H](NC(=O)[C@@H](CO)NC(=O)[C@H](N)CCCNC(=N)N)C(=O)N[C@@H](Cc3ccc(F)cc3)C(=O)N[C@@H](CCCNC(=N)N)C(=O)N[C@@H](CC(C)C)C(=O)N3CCC[C@H]3C(=O)N2)C(=O)CCSC[C@@H](C(=O)N[C@@H](CCCNC(=N)N)C(N)=O)NC(=O)C[C@H](CCCNC(=N)N)NC1=O
notes: rs is D-Arg-D-Ser; F^4F is 4-fluoro-phenylalanine
B2: peptide 4 (peptide 2, Phe3 to tyrosine) (peptide)
peptide: RCYRLPCRQLRCRW-NH2
modifications: linker 2-7-12 via TATA; N-terminus assumed
SMILES: CC(C)C[C@@H]1NC(=O)[C@H](CCC(N)=O)NC(=O)[C@H](CCCNC(=N)N)NC(=O)[C@@H]2CSCCC(=O)N3CN(CN(C3)C(=O)CCSC[C@H](NC(=O)[C@@H](N)CCCNC(=N)N)C(=O)N[C@@H](Cc3ccc(O)cc3)C(=O)N[C@@H](CCCNC(=N)N)C(=O)N[C@@H](CC(C)C)C(=O)N3CCC[C@H]3C(=O)N2)C(=O)CCSC[C@@H](C(=O)N[C@@H](CCCNC(=N)N)C(=O)N[C@@H](Cc2c[nH]c3ccccc23)C(N)=O)NC(=O)[C@H](CCCNC(=N)N)NC1=O
notes: Number tied to residue by the order of the list
B3: peptide 9 (peptide 2, Phe3 to proline) (peptide)
peptide: RCPRLPCRQLRCRW-NH2
modifications: linker 2-7-12 via TATA; N-terminus assumed
SMILES: CC(C)C[C@@H]1NC(=O)[C@H](CCC(N)=O)NC(=O)[C@H](CCCNC(=N)N)NC(=O)[C@@H]2CSCCC(=O)N3CN(CN(C3)C(=O)CCSC[C@H](NC(=O)[C@@H](N)CCCNC(=N)N)C(=O)N3CCC[C@H]3C(=O)N[C@@H](CCCNC(=N)N)C(=O)N[C@@H](CC(C)C)C(=O)N3CCC[C@H]3C(=O)N2)C(=O)CCSC[C@@H](C(=O)N[C@@H](CCCNC(=N)N)C(=O)N[C@@H](Cc2c[nH]c3ccccc23)C(N)=O)NC(=O)[C@H](CCCNC(=N)N)NC1=O
notes: as for B2
B4: peptide 5 (peptide 2, Phe3 to leucine) (peptide)
peptide: RCLRLPCRQLRCRW-NH2
modifications: linker 2-7-12 via TATA; N-terminus assumed
SMILES: CC(C)C[C@@H]1NC(=O)[C@H](CCC(N)=O)NC(=O)[C@H](CCCNC(=N)N)NC(=O)[C@@H]2CSCCC(=O)N3CN(CN(C3)C(=O)CCSC[C@H](NC(=O)[C@@H](N)CCCNC(=N)N)C(=O)N[C@@H](CC(C)C)C(=O)N[C@@H](CCCNC(=N)N)C(=O)N[C@@H](CC(C)C)C(=O)N3CCC[C@H]3C(=O)N2)C(=O)CCSC[C@@H](C(=O)N[C@@H](CCCNC(=N)N)C(=O)N[C@@H](Cc2c[nH]c3ccccc23)C(N)=O)NC(=O)[C@H](CCCNC(=N)N)NC1=O
notes: as for B2
B5: peptide 2 (FXII618 with a tryptophan appended to the C-terminus) (peptide)
peptide: RCFRLPCRQLRCRW-NH2
modifications: linker 2-7-12 via TATA; N-terminus assumed
SMILES: CC(C)C[C@@H]1NC(=O)[C@H](CCC(N)=O)NC(=O)[C@H](CCCNC(=N)N)NC(=O)[C@@H]2CSCCC(=O)N3CN(CN(C3)C(=O)CCSC[C@H](NC(=O)[C@@H](N)CCCNC(=N)N)C(=O)N[C@@H](Cc3ccccc3)C(=O)N[C@@H](CCCNC(=N)N)C(=O)N[C@@H](CC(C)C)C(=O)N3CCC[C@H]3C(=O)N2)C(=O)CCSC[C@@H](C(=O)N[C@@H](CCCNC(=N)N)C(=O)N[C@@H](Cc2c[nH]c3ccccc23)C(N)=O)NC(=O)[C@H](CCCNC(=N)N)NC1=O
B6: peptide 3 (peptide 2, Phe3 to tryptophan) (peptide)
peptide: RCWRLPCRQLRCRW-NH2
modifications: linker 2-7-12 via TATA; N-terminus assumed
SMILES: CC(C)C[C@@H]1NC(=O)[C@H](CCC(N)=O)NC(=O)[C@H](CCCNC(=N)N)NC(=O)[C@@H]2CSCCC(=O)N3CN(CN(C3)C(=O)CCSC[C@H](NC(=O)[C@@H](N)CCCNC(=N)N)C(=O)N[C@@H](Cc3c[nH]c4ccccc34)C(=O)N[C@@H](CCCNC(=N)N)C(=O)N[C@@H](CC(C)C)C(=O)N3CCC[C@H]3C(=O)N2)C(=O)CCSC[C@@H](C(=O)N[C@@H](CCCNC(=N)N)C(=O)N[C@@H](Cc2c[nH]c3ccccc23)C(N)=O)NC(=O)[C@H](CCCNC(=N)N)NC1=O
B7: peptide 10 (peptide 2, Arg4 to lysine) (peptide)
peptide: RCFKLPCRQLRCRW-NH2
modifications: linker 2-7-12 via TATA; N-terminus assumed
SMILES: CC(C)C[C@@H]1NC(=O)[C@H](CCC(N)=O)NC(=O)[C@H](CCCNC(=N)N)NC(=O)[C@@H]2CSCCC(=O)N3CN(CN(C3)C(=O)CCSC[C@H](NC(=O)[C@@H](N)CCCNC(=N)N)C(=O)N[C@@H](Cc3ccccc3)C(=O)N[C@@H](CCCCN)C(=O)N[C@@H](CC(C)C)C(=O)N3CCC[C@H]3C(=O)N2)C(=O)CCSC[C@@H](C(=O)N[C@@H](CCCNC(=N)N)C(=O)N[C@@H](Cc2c[nH]c3ccccc23)C(N)=O)NC(=O)[C@H](CCCNC(=N)N)NC1=O
B8: peptide 63 (bicyclic peptide without the C-terminal arginine) (peptide)
peptide: RCFRLPCRQLRC-NH2
modifications: linker 2-7-12 via TATA; N-terminus assumed
SMILES: CC(C)C[C@@H]1NC(=O)[C@H](CCC(N)=O)NC(=O)[C@H](CCCNC(=N)N)NC(=O)[C@@H]2CSCCC(=O)N3CN(CN(C3)C(=O)CCSC[C@H](NC(=O)[C@@H](N)CCCNC(=N)N)C(=O)N[C@@H](Cc3ccccc3)C(=O)N[C@@H](CCCNC(=N)N)C(=O)N[C@@H](CC(C)C)C(=O)N3CCC[C@H]3C(=O)N2)C(=O)CCSC[C@@H](C(N)=O)NC(=O)[C@H](CCCNC(=N)N)NC1=O
B9: peptide 60 (peptide 2, nitro group in para position of Phe3) (peptide)
peptide: RC[Phe(4-NO2)]RLPCRQLRCRW-NH2
modifications: linker 2-7-12 via TATA; also: description names 2-nitro-phenylalanine, example says para
B10: peptide 52 (peptide 2, methyl group in meta-position of the phenyl ring of Phe3) (peptide)
peptide: RC[Phe(3-Me)]RLPCRQLRCRW-NH2
modifications: linker 2-7-12 via TATA; N-terminus assumed
SMILES: Cc1cccc(C[C@@H]2NC(=O)[C@@H](NC(=O)[C@@H](N)CCCNC(=N)N)CSCCC(=O)N3CN4CN(C3)C(=O)CCSC[C@H](NC(=O)[C@@H]3CCCN3C(=O)[C@H](CC(C)C)NC(=O)[C@H](CCCNC(=N)N)NC2=O)C(=O)N[C@@H](CCCNC(=N)N)C(=O)N[C@@H](CCC(N)=O)C(=O)N[C@@H](CC(C)C)C(=O)N[C@@H](CCCNC(=N)N)C(=O)N[C@H](C(=O)N[C@@H](CCCNC(=N)N)C(=O)N[C@@H](Cc2c[nH]c3ccccc23)C(N)=O)CSCCC4=O)c1
B11: peptide 62 (bicyclic peptide without the N-terminal arginine) (peptide)
peptide: CFRLPCRQLRCR-NH2
modifications: linker 1-6-11 via TATA; N-terminus assumed
SMILES: CC(C)C[C@@H]1NC(=O)[C@H](CCC(N)=O)NC(=O)[C@H](CCCNC(=N)N)NC(=O)[C@@H]2CSCCC(=O)N3CN(CN(C3)C(=O)CCSC[C@H](N)C(=O)N[C@@H](Cc3ccccc3)C(=O)N[C@@H](CCCNC(=N)N)C(=O)N[C@@H](CC(C)C)C(=O)N3CCC[C@H]3C(=O)N2)C(=O)CCSC[C@@H](C(=O)N[C@@H](CCCNC(=N)N)C(N)=O)NC(=O)[C@H](CCCNC(=N)N)NC1=O
B12: peptide 54 (peptide 2, carbon replaced with nitrogen in meta-position of the phenyl ring of Phe3) (peptide)
peptide: RC[3Pal]RLPCRQLRCRW-NH2
modifications: linker 2-7-12 via TATA; N-terminus assumed
SMILES: CC(C)C[C@@H]1NC(=O)[C@H](CCC(N)=O)NC(=O)[C@H](CCCNC(=N)N)NC(=O)[C@@H]2CSCCC(=O)N3CN(CN(C3)C(=O)CCSC[C@H](NC(=O)[C@@H](N)CCCNC(=N)N)C(=O)N[C@@H](Cc3cccnc3)C(=O)N[C@@H](CCCNC(=N)N)C(=O)N[C@@H](CC(C)C)C(=O)N3CCC[C@H]3C(=O)N2)C(=O)CCSC[C@@H](C(=O)N[C@@H](CCCNC(=N)N)C(=O)N[C@@H](Cc2c[nH]c3ccccc23)C(N)=O)NC(=O)[C@H](CCCNC(=N)N)NC1=O
B13: peptide 56 (peptide 2, fluorine in ortho-position of Phe3) (peptide)
peptide: RC[Phe(2-F)]RLPCRQLRCRW-NH2
modifications: linker 2-7-12 via TATA; N-terminus assumed
SMILES: CC(C)C[C@@H]1NC(=O)[C@H](CCC(N)=O)NC(=O)[C@H](CCCNC(=N)N)NC(=O)[C@@H]2CSCCC(=O)N3CN(CN(C3)C(=O)CCSC[C@H](NC(=O)[C@@H](N)CCCNC(=N)N)C(=O)N[C@@H](Cc3ccccc3F)C(=O)N[C@@H](CCCNC(=N)N)C(=O)N[C@@H](CC(C)C)C(=O)N3CCC[C@H]3C(=O)N2)C(=O)CCSC[C@@H](C(=O)N[C@@H](CCCNC(=N)N)C(=O)N[C@@H](Cc2c[nH]c3ccccc23)C(N)=O)NC(=O)[C@H](CCCNC(=N)N)NC1=O

These binders were tested against T1, human β-FXIIa (HFXIIAB; Molecular Innovations) (human, UniProt P00748 354-362; P00748 373-615, limits assumed) (assay: protease inhibition assay).
T1 construct: domain: catalytic domain; Bought; also called human b-FXIIa; human FXIIa
T1 sequence (P00748 373-615 limits assumed, one chain of several): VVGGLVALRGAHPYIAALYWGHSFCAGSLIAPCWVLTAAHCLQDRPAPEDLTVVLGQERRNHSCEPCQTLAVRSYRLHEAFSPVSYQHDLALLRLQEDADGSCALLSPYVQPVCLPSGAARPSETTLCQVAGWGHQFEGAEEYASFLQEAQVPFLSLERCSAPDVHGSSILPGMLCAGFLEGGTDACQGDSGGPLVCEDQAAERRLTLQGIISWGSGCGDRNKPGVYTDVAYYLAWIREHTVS
B1 gave a Ki of 0.36 nM.

These binders were tested against T1, human β-FXIIa (HFXIIAB; Molecular …) (assay: protease inhibition assay (Table in FIG. 6)).
H-RC[3‑benzothienylalanine]RLPCRQLRCRW-NH2 (linker 2-7-12 via TATA) [FXII618 variant with F in position three replaced by 3-benzothienylalanine] was tested, and the Ki was < 50 nM.
With B2 the Ki was < 100 nM.
B3 was tested, and the Ki was < 100 nM.
With B4 the Ki was < 100 nM.
For RC[Phe(3-F)]RLPCRQLRCRW-NH2 (linker 2-7-12 via TATA) [peptide 57 (peptide 2, fluorine in meta-position of Phe3)], the Ki was < 100 nM.
H-RC[1Nal]RLPCRQLRCRW-NH2 (linker 2-7-12 via TATA) [FXII618 variant with F in position three replaced by 1-naphthylalanine] was tested, and the Ki was < 50 nM.

The binders below were run against T1, human β-FXIIa (HFXIIAB; Molecular …) (assay: protease inhibition assay, fluorogenic substrate).
With B5 the Ki was 26 nM.
In the case of B6, the Ki is reported as 26 nM.
Binder B7 has a Ki of 283 nM.
With B8 the Ki was 28.8 nM.
Work on B9 yielded a Ki of 4.5 nM.
B10 showed a Ki of 10.4 nM.
B11 was tested, and the Ki was 932 nM.
B12 was tested, and the Ki was 8.4 nM.
RC[Phe(4-F)]RLPCRQLRCRW-NH2 (linker 2-7-12 via TATA) [peptide 58 (peptide 2, fluorine in para-position of Phe3)] was tested, and the Ki was 2.31 nM.
For B13, the Ki was 13.1 nM.

Biological target: T1, human β-FXIIa (HFXIIAB; Molecular …)
Assay: protease inhibition assay
Remark: another data set of the same source
B2 was tested, and the “fold reduction of activity vs peptide 2” value was > 2 fold.
In the case of B4, the “fold reduction of activity vs peptide 2” value is reported as > 2 fold.
In the case of B7, the “fold reduction of activity vs peptide 2” value is reported as 10 fold.
